Measurements: patent US20130142799A1 (Amgen, published 2013)
Changes are numbered by the printed parent chain.

T1: human angiopoietin-2 (human, UniProt O15123 19-496, limits assumed)
T1 construct: also called hAng-2; huAng-2
T1 sequence (looked up): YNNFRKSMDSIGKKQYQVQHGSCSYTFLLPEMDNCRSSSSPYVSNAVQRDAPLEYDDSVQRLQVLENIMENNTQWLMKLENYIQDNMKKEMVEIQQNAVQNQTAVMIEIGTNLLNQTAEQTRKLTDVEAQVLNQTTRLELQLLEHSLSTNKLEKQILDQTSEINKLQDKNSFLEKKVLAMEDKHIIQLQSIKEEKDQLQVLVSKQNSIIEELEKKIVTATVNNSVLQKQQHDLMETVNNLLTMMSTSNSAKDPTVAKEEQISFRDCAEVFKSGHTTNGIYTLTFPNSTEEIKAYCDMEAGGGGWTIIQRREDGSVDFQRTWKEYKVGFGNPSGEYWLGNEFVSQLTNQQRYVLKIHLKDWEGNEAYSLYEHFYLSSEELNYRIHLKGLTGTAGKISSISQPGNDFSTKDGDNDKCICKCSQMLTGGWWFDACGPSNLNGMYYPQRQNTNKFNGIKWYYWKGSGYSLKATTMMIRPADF

T2: murine Ang-2, His-tagged (mouse, UniProt O35608 19-496)
T2 construct: also called mAng-2; mAng-2-His
T2 sequence (looked up): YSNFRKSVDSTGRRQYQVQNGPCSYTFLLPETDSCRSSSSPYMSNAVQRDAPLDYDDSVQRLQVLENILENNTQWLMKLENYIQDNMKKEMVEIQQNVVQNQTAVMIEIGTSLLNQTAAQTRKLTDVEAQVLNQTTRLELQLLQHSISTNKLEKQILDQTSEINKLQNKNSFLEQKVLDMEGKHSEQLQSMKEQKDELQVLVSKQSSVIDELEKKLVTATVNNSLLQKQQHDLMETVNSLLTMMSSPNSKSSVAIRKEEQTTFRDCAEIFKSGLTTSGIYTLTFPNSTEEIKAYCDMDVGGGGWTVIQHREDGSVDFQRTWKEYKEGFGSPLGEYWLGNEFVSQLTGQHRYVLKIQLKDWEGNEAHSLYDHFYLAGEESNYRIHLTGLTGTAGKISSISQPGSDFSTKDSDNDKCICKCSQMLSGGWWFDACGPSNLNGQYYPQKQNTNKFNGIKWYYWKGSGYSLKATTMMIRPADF

T3: human angiopoietin-1 (human, UniProt Q15389 20-498)
T3 construct: also called hAng-1; Human Ang1
T3 sequence (looked up): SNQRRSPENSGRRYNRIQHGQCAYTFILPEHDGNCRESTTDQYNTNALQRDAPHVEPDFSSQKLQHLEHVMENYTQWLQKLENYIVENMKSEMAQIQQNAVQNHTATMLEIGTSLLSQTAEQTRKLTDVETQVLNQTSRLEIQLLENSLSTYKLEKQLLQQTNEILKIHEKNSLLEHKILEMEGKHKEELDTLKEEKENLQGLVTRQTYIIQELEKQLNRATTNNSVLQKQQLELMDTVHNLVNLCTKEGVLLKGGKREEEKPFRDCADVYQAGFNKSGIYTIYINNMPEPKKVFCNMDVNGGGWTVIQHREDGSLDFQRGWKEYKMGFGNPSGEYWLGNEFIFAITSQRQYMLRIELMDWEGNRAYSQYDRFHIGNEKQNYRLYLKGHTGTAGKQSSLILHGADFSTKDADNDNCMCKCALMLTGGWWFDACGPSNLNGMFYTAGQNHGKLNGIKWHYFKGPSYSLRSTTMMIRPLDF

B1: Ab 555 (antibody, human IgG1, kappa, V domains shown)
VH: QVQLQESGGGVVQPGRSLRLSCAASGFTFSSYAMHWVRQAPGKGLEWVAVISYDGSNKYYADSVKGRFTISRDNSKNTLYLQMNSLRAEDTAVYYCARSASDHYYDSSGYYSDAFDIWGQGTMVTVSS
VL: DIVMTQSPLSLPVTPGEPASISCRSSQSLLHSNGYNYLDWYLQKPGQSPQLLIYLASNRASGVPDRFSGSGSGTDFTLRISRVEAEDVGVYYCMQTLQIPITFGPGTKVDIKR
notes: Fully human IgG1 kappa
B2: Ab 553 (antibody, human IgG1, kappa, V domains shown)
VH: QVQLVQSGAEVKKPGASVKVSCKASGYTFTSYAMHWVRQAPGQRLEWMGWINAGNGNTKYSQKFQGRVTITRDTSASTAYMELSGLRSEDTAVYYCARGVDDYGGNSWAFDIWGQGTMVTVSS
VL: DIVMTQSPLSLPVTPGEPASISCRSSQSLLHSNGYNYLDWYLQKPGQSPQLLIYLGSNRASGVPDRFTGSGSATDFTLRISRVEAEDVGVYYCMQALQTPLTFGGGTKVEIKR
notes: Fully human IgG1 kappa
B3: Ab G1D4 (antibody, human IgG1, lambda, V domains shown)
VH: QVQLVQSGAEVKKPGSSVKVSCKASGGTFSSHAISWVRQAPGQGLEWMGRIIPILGIANYAQKFQGRVTITADESTSTAYMELSSLRSEDTAVYYCATSRLEWLLYLDYWGQGTLVTVSS
VL: NFMLTQPHSVSESPGKTVIIPCTRSSGSIASNYVQWYQKRPGSAPSIVIYEDKQRPSGVPDRFSGSIDSSSNSASLTISGLKTEDEADYYCQSYNSRGVMFGGGTKLTVLG
notes: Fully human IgG1 lambda
B4: Ab 528 (antibody, human IgG1, lambda, V domains shown)
VH: QVQLVQSGAEVKKPGSSVKVSCKASGGTFSSYAISWVRQAPGQGLEWMGGIIPIFGTANYAQKFQGRVTITADESTSTAYMELSSLRSEDTAVYYCARGVVGDFDWLSFFDYWGQGTLVTVSS
VL: SYELTQPPSVSVSPGQTASITCSGDKLGYTYTSWFQQKPGQSPVLVIFQDFKRPSGIPERFSGSNSGNTATLTISGTQAMDEADYYCQAWDSTTAVVFGTGTKVTVLG
notes: Fully human IgG1 lambda
B5: Ab 543 (antibody, human IgG1, kappa, V domains shown)
VH: QVQLVQSGAEVKKPGSSVKVSCKASGGTFSSYAISWVRQAPGQGLEWMGRIIPILGIANYAQKFQGRVTITADKSTSTAYMELSSLRSEDTAVYYCARPYYDFWSGPGGMDVWGQGTTVTVSS
VL: not shown
notes: Fully human IgG1 kappa
B6: Ab 544 (antibody, human IgG1, lambda, V domains shown)
VH: QVQLVQSGAEVKKPGASVKVSCKASGGTFSSYAISWVRQAPGQGLEWMGGIIPIFGTANYAQKFQGRVTITADESTSTAYMELSSLRSEDTAVYYCARFESGYWGDAFDIWGQGTMVTVSS
VL: SYELTQPPSVSVSPGQTARITCSGDALPKQYAYWYQQKPGQAPVLVIYKDSERPSGIPERFSGSSSGTTVTLTISGVQAEDEADYYCQSADSSHVVFGGGTKLTVLG
notes: also called clone 544
B7: Ab 535 (antibody, human IgG1, lambda, V domains shown)
VH: B6 VH with A16S, E74K, R98A, E100S, S101P, G102F, Y103T, W104E, G105T
VL: QSVLTQPPSVSAAPGQKVTISCSGSNSNIGNNFVSWYQQLPGTAPKLLVYDNNKRPSGIPDRFSGSKSGTSATLGITGLQTGDEADYYCGTWDSSLSAAEVVFGGGTKLTVLG
notes: Fully human IgG1 lambda
B8: Ab 536 (THW/LQT mixture) (antibody, V domains shown)
VH: EVQLVQSGGGVVQPGRSLRLSCAASGFTFSSYGMHWVRQAPGKGLEWVSYISSSGSTIYYADSVKGRFTISRDNAKNSLYLQMNSLRAEDTAVYYCARDLLDYDILTGYGYWGQGTLVTVSS
VL: not shown
notes: each antibody in the mixture has two heavy and two light chains; also called clone 536; copies: 2 + 2
B9: Ab 533 (antibody, human IgG1, kappa, V domains shown)
VH: B8 VH
VL: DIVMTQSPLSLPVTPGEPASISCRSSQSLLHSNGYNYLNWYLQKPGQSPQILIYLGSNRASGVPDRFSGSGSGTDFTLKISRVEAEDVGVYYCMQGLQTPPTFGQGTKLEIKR
notes: also called clone 533
B10: Ab 540 (antibody, human IgG1, lambda, V domains shown)
VH: QVQLVQSGAEVKKPGSSVKVSCKASGGTFSSYAISWVRQAPGQGLEWMGGIIPILGIANYAQKFQGRVTITADKFTSTAYMELSSLGSEDTAVYYCARAVPGTEDAFDIWGQGTMVTVSS
VL: QSVLTQPPSVSAAPGQKVTISCSGSSSNIGANYVSWYQQLPGTAPKLLIYNNNKRPSGIPDRFSGSKSDTSATLGITGLQTGDEADYYCGAWDSSLSASWVFGGGTKLTVLG
notes: Fully human IgG1 lambda
B11: Ab 531 (antibody, human IgG1, lambda, V domains shown)
VH: EVQLVQSGAEVKKPGSSVKVSCKASGGTFSSYAISWVRQAPGQGLEWMGGIIPILGIANYAQKFQGRVTITADKSTNTAYMELTSLTSDDTAVYYCARDREDTAMVFNYWGQGTLVTVSS
VL: B10 VL with I20V, A31N, N51D, D69G, A91T, S99F
notes: Fully human IgG1 lambda
B12: Ab 537 (antibody, human IgG1, V domains shown)
VH: QVQLVQSGAEVKKPGSSVKVSCKASGGTFSSYAISWVRQAPGQGLEWMGGIIPILGIANYAQKFQGRVTITADKSTSTAYMELSGLGSEDTAVYYCARGSSDAAVAGMWGQGTLVTVSS
VL: QSVLTQPPSVSAAPGQDVTISCSGNNSNIGNNYVSWYQQVPGTAPKLLVYDNHKRPSGISDRFSGSKSDTSATLDITGLQPGDEADYYCGTWDTSLSANWVFGGGTKLTVLR
notes: Fully human IgG1 lambda; also called clone 537
B13: Ab 526 (antibody, human IgG1, kappa, V domains shown)
VH: EVQLVESGGGVVQPGRSLRLSCAASGFTFSSYGMHWVRQAPGKGLEWVSAISGSGGSTYYADSVKGRFTISRDNAKNSLYLQMNSLRAEDTAVYYCARDLLDYDILTGPYAYWGQGTLVTVSS
VL: not shown
notes: Fully human IgG1 kappa

Target: T1, human angiopoietin-2
Assay: Neutralization ELISA: antibody titrated against 1 nM Tie2-Fc on plate-bound hAng-2
Procedure: Microtiter plates to which human Ang-2 polypeptide was bound were prepared as described for the Affinity ELISA. […] Next, about 100 microliters per well of goat anti-mouse-IgG-HRP (Pierce Chemical CO., catalog #31432) was added at a dilution of 1:10,000 in PBS containing about 1 percent BSA. Plates were incubated at room temperature for about 1 hour, after which they were washed five times with PBS containing about 0.1 percent Tween-20. About 100 microliters per well of TMB substrate (described above) was then added and color was allowed to develop. Absorbance was then read in a spectrophotomer at 370 nm.
Seventeen of the antibodies and a negative control IgG1 (referred to as RDB1) were tested using affinity and neutralization ELISA (as described in Example 3 above) as well as the BIAcore neutralization assay to determine their affinity, neutralization, and specificity capabilities.

| IC50 [nM] | Binder |
| --- | --- |
| 2.21 | B1 |
| 1.47 | B2 |
| 1.39 | B3 |
| 1.37 | B4 |
| 0.51 | B5 |
| 0.97 | B6 |
| 2.81 | B7 |
| 0.08 | B8 |
| 0.3 | B9 |
| 0.7 | B10 |
| 2.15 | B11 |
| 0.56 | B12 |
| 1.83 | B13 |

Target: T2, murine Ang-2, His-tagged
Assay: Affinity ELISA on plate-bound mAng-2

| EC50 [nM] | Binder |
| --- | --- |
| 0.01 | B8 |

Target: T2, murine Ang-2, His-tagged
Assay: Neutralization ELISA: antibody titrated against 1 nM Tie2-Fc on plate-bound mAng-2

| IC50 [nM] | Binder |
| --- | --- |
| 1.76 | B1 |
| 1.41 | B2 |
| 0.6 | B3 |
| 0.73 | B4 |
| 0.24 | B5 |
| 1.82 | B6 |
| 2.45 | B7 |
| 0.05 | B8 |
| 0.08 | B9 |
| 1.53 | B10 |
| 1.67 | B11 |
| 0.62 | B12 |
| 0.27 | B13 |

Target: T3, human angiopoietin-1
Assay: Neutralization ELISA: antibody titrated against 1 nM Tie2-Fc on plate-bound hAng-1

| IC50 [nM] | Binder |
| --- | --- |
| 69.5 | B3 |
| 23.3 | B6 |
| 115 | B8 |
| 243 | B13 |

Target: T1, human angiopoietin-2
Assay: BIAcore: antibody captured on Protein G, huAng-2 injected
Procedure: (§1) Binding assays were carried out by first attaching about 100 Ru of each candidate anti-Ang-2 antibody to the immobilized Protein G, after which various concentrations (0-100 nM) of huAng-2 or mAng-2 were then injected over the bound antibody surface at a flow rate of about 50 ul/min for about 3 minutes. Antibody binding kinetics including kₐ (association rate constant), kd (dissociation rate constant) and KD (dissociation equilibrium constant) were determined using the BIA evaluation 3.1 computer program (BIAcore, Inc.).

| Kd [nM] | koff [s⁻¹] | kon [M⁻¹ s⁻¹] | Binder |
| --- | --- | --- | --- |
| 0.12 | 3.8e-05 | 320000 | B8 |

Target: T3, human angiopoietin-1
Assay: Affinity ELISA on plate-bound hAng-1

| EC50 [nM] | Binder |
| --- | --- |
| 30 | B8 |

Target: T1, human angiopoietin-2
Assay: Affinity ELISA on plate-bound hAng-2

| EC50 [nM] | Binder |
| --- | --- |
| 0.005 | B8 |

Target: T2, murine Ang-2, His-tagged
Assay: BIAcore: antibody captured on Protein G, mAng-2 injected
Procedure: as §1

| Kd [nM] | koff [s⁻¹] | kon [M⁻¹ s⁻¹] | Binder |
| --- | --- | --- | --- |
| 0.15 | 9.5e-05 | 620000 | B8 |
